Experimental data from US12173330B2, “Method for producing hydroxy-L-pipecolic acid” (API CORPORATION, priority 2015, dated 2024).

Tests used:
[1] = substrate: O=C(O)[C@@H]1CCCN1; experiment: purified protein, by the assay type; settings: other: substrate: L-proline, 20 mmol/L 2-oxoglutaric acid, 30° C.
[2] = substrate: O=C(O)[C@@H]1CCCCN1; experiment: purified protein, by the assay type; settings: other: substrate: L-pipecolic acid, 20 mmol/L 2-oxoglutaric acid, 30° C.

B1: Sinorhizobium meliloti 1021 L-proline cis-4-hydroxylase SmPH, SEQ ID NO: 10 (Sinorhizobium meliloti 1021) (protein)
chain: MSTHFLGKVKFDEARLAEDLSTLEVAEFSSAYSDFACGKWEACVLRNRTGMQEEDIVVSHNAPALATPLSKSLPYLNELVETHFDCSAVRYTRIVRVSENACIIPHSDYLELDETFTRLHLVLDTNSGCANTEEDKIFHMGLGEIWFLDAMLPHSAACFSKTPRLHLMIDFEATAFPESFLRNVEQPVTTRDMVDPRKELTDEVIEGILGFSIIISEANYREIVSILAKLHFFYKADCRSMYDWLKEICKRRGDPALIEKTASLERFFLGHRERGEVMTY
With B1 as the protein, how does the Km [1] read?
The Km was 580 µM.

What about the Km [2] of the same protein?
The Km was 310 µM.

And the Vmax [2]?
The Vmax was 0.03 U/mg-protein.

B2: Catenulispora acidiphila NBRC102108 L-proline cis-4-hydroxylase CaPH, SEQ ID NO: 6 (Catenulispora acidiphila DSM 44928) (protein)
chain: MRTQYVAALELDEGRLAKDLETSASFNYSEAYSNYLIGGPWKSAMLYSAGGDAGDGLLTDYDYRQSSDFTDYGRQMPYLQELISTSVDLSRLTFVRLARFAKSVIVPHRDFLELEEIPEDKRSAHRLHIPLATHEECFFSEDNVVYRMRAGELWYFDASRIHSVVSFAEEPRIHLIFDFADRPGAGSLVTVPGEPEGAGVPAASAVDRPQLSDAERAALARLADVLTMDTFSEIFSVLVKKHFRRDGGEHFVWDTLTALARACPDPAVLPHTQELRRYFTLERPSGSGQA
How did the Km [1] turn out when B2 was run?
The Km was 8870 µM.

And the Vmax [1]?
The Vmax was 0.02 U/mg-protein.

B3: Xenorhabdus doucetiae FRM16 L-proline cis-4-hydroxylase XdPH, SEQ ID NO: 8 (Xenorhabdus doucetiae) (protein)
chain: MMSAKLLASIELNQEQIEHDLNIVGSEILDVAYSEYACGNWGTITLWNHSGDAGDQTSREYVGQARPTELGQQLDCINQLIRNNFNISLIKSVRIFRSYNGGAIYPHIDYLEFNQGFKRVHLVLKSDRSCLNSEENTVYHMLPGEVWFVDGHSAHSAMSLSRVGKYSLVLDFDSGAKFEDLYSESHTLCVDNLEPDIIHDRQPLPTSLRDSLAHIAEHADEFNIQSILFLATRFHFSYAVSIREYFQLLDECFSRNPYKSVRERYEALKDILVRSGYTSHNVNHFNSLSGVTIG
For B3, which Km [1] is on record?
The Km was 310 µM.

What about the Km [2] of the same protein?
Its Km is 300 µM.

What about the Vmax [2] of the same protein?
Its Vmax is 1.14 U/mg-protein.
